Test results taken from US20140370024A1 (IMPERIAL INNOVATIONS, published 2014).

Target: T1, gC1qR, the receptor of the globular part of the complement protein C1q, from rat brain membrane fractions (rat, UniProt O35796 72-279)
T1 construct: also called ~30 kDa band
T1 sequence (looked up): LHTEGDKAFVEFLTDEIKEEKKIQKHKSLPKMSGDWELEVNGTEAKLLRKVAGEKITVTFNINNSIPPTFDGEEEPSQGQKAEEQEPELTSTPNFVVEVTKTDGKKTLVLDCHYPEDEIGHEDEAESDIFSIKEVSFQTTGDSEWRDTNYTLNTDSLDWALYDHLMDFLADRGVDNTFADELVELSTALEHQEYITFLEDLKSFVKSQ
Assay: chemical cross-linking to rat brain membrane fraction, Tricine-PAGE, Western blot with streptavidin-HRP; band identified as gC1q-R by LC-MS/MS
Experimental: The reaction was terminated using 50 mM Tris buffer, and samples were ethanol precipitated and resolved using Tricine-PAGE and visualised by Western blot analysis by streptavidin-horse radish peroxidase. A clear band at ˜30 kDa (indicated by an arrow) was observed following chemical crosslinking using biotinylated TLQP-21., which was many orders of magnitude greater than the corresponding band in the membrane control lane using unconjugated Sulfo-EMCS cross-linker. b, Membrane fractions of P4 rat brain was applied to either monomeric avidin column attached with TLQP-21 or monomeric avidin column only (“Negative control”). Following considerable washes, proteins bound to the columns were eluted and resolved on SDS-PAGE, followed by silver staining. A ˜30 kDa band (arrow) was apparent in the elutant from the TLQP-21-attached column. C, The ˜30 kDa band was analysed by LC-MS/MS Orbitrap following trypsinisation.
Ccl11 has been linked to inflammation²³, while Cxcl9 is known as a natural antagonist to Ccl11 receptor CCR3²⁴. We then used Sulfo-EMCS-conjugated TLQP-21 to purify and identify receptor(s) for TLQP-21. […] The membrane fractions of rat brain was incubated with the crosslinker-conjugated TLQP-21, and analysed by Tricine-PAGE and Western blotting using Streptavidin-HRP for the biotin tag on TLQP-21.

B1: Sulfo-EMCS cross-linker-conjugated biotinylated TLQP-21 (peptide)
peptide: TLQPPASSRRRHFHHALPPARC
modifications: biotin covalently attached via the amide bond at the N-terminus; Sulfo-EMCS cross-linker conjugated via the sulphydryl group of the extra cysteine at the C-terminus
notes: Used for chemical cross-linking to rat membrane fractions; also called crosslinker-conjugated TLQP-21; Sulfo-EMCS-conjugated TLQP-21
binding result: binds
